Assays:
[1] = biological target: human neutrophils; test: competition of 125I-IL-8 by unlabelled IL-8 on human neutrophils, Scatchard analysis
[2] = biological target: human IL-8 type A receptor (IL8R-A), encoded by clone pRK5B.il8r1.1 (human); test: competition of 125I-IL-8 by unlabelled IL-8 on COS cells transfected with pRK5B.il8r1.1, Scatchard analysis

recombinant human IL-8 (72 amino acid form, made in E. coli) (from UniProt P10145) (ligand)
Kd [1]: 1.1 nM
Kd [2]: 3.6 nM

Source: patent US5922541
